Measurements: article PMC12645917

Key:
[1] = target: PEDV S-Trimer (trimerized PEDV spike protein, 2P-stabilised, residues 1-1,319 with C-terminal GCN4 trimerization motif) (porcine epidemic diarrhea virus (PEDV)); test: SEC; purified protein on Superose 6 increase 10/300 GL, 20 mM HEPES pH 7.6, 150 mM NaCl; single peak compared with the 669 kDa standard
[2] = target: TGEV S-Trimer (trimerized TGEV spike protein, 2P-stabilised, residues 1-1,388 with C-terminal GCN4 trimerization motif) (transmissible gastroenteritis virus (TGEV)); test: as above

Row | Substance | stoichiometry N [1] | stoichiometry N [2]
1 | PEDV S-Trimer (trimerized PEDV spike protein, 2P-stabilised, residues 1-1,319 with C-terminal GCN4 trimerization motif) (natural protein) | 3 | –
2 | TGEV S-Trimer (trimerized TGEV spike protein, 2P-stabilised, residues 1-1,388 with C-terminal GCN4 trimerization motif) (natural protein) | – | 3
